Assay results taken from paper PMC10524356.

Key:
[1] = molecular target: HIV-2 Gag polyprotein in immature particles (HIV-2 ROD); experiment: cryo-EM structure
[2] = molecular target: HIV-2 capsid (CA) protein carboxyl-terminal domain, CA residues 145-230 (HIV-2 ROD); experiment: crystal structure

| Substance | stoichiometry N [1] | stoichiometry N [2] |
| --- | --- | --- |
| HIV-2 Gag polyprotein in immature particles (natural protein) | 6 | – |
| HIV-2 capsid (CA) protein carboxyl-terminal domain, CA residues 145-230 (domain or fragment) | – | 2 |
